Reference: the nanobody polyreactivity screen of Harvey et al. (2022)

Assay: yeast display, Sf9 membrane polyspecificity reagent, FACS + sequencing; frameworks hold sequencing errors
Summary of the method: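 Polyreactivity labels are assigned by the sorting gate from which each nanobody was recovered. The gates were low and high (top ~1%), set on anti-HA fluorescence for expression and streptavidin fluorescence for reagent binding. Before sorting, galactose-induced (36–48 hours) yeast display cells were stained for 1 hour at 4 °C with 10% biotinylated, detergent-solubilized Sf9 membrane reagent.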

Sequence	polyreactivity (PSR sort gate)
QVQLVESGGGLVQAGGSLRLSCAASGFTFGDNAMGWYRQAPGKERELVAAITSTGGSTNYADSVKGRFTISRDNAKNTVYLQINSLKPEDTAVYYCAAEWLYPHDGGYPRPMDYWGQGTQVTVSS	low polyreactivity
QVQLVESGGGLVQAGGSLRLSGASYGFIFVWYAMGWYRQAPGKEREFVAAITSLGGSTYYADSVKGRFTISRDNEKNSVYLHMYSLNPEDTADYYCNAEFFYRGSGYDSWGQGTQVTVSS	high polyreactivity
QVQLVESGGGLVQAGGSLRLSCAASGFIFGLNALGWYRPAPGKERELDAAIRSASSTNYADSVKGRFTISRDNAKNTVFLQMNSLKPEDTAVYYCAAEYVTYQQGFWGYDYWGQGTQVTVSS	low polyreactivity
QVQLVESGGGLVQAGGSLRLSCAASGRTNSFYAMGWYRQAPGKERELVAAISRGGTTNYADSVKGRFTISRDNAKNTVYLQMNSLKPEDTAVYYCAASYFRRGFYSIYEYDYWGQGTQVTVSS	low polyreactivity
QVHLVESGGGLVQAGGSLRLSCAASGSIFGSQNAMGWYRQAPGKERELVAAYYTARGARTYYADSVKGRFTISRDNAKNTVYLQMNSLKPEDTAVYYCAPRRYGRYRYDYWGQGTQVTVSS	low polyreactivity
QVQLVESGGGLVQAGGSLRLSCAAYGSIFRVYAMGWYRQAPGKEREFVAAITRRGTRTYYADSVKGRFTISRDNAKNTVYLQMNSLKPEDTAVYYCAAYFTDGLFEYWGQGTQVTVSS	low polyreactivity
QVQLQESGGGLVQAGGSLLSCAASGTISYYREMGWYRQAPGKERELVAGIGVGTITYYADSVKGRFTISRDNAKNTVYLQMNSLKPEATAVYYCAAHIDGNDSHAYWGQGTQVTVSS	low polyreactivity
QVQLVQSGGGLVQAGGSLRLSSAASRSPLGYYALGWYRQAPGKERELVAAISGRGTSPYYADSVKGRFTISRDNAKNTVYVQMNSLKPEDTAVSYCAAQLFRELYWGQGTQVTVSS	high polyreactivity
QVQLVESGGGLGQAGGSLRLSCAASGLTFTKNVMGWSSQAPGKERELVAVISRSGGSTYYADSVKGRFTISRDNAKNTVYLQMISLKPEDTAVYYCNVKGPGPSRGNYWGQGTQVTVSS	low polyreactivity
QVQLVESGGGLVQAGGSLRLSCAASGSIFTFNAMGWYRQAPGKEREFVAAITRSGGRTYYADSVKGRFTISRDNAKNTVYLQMNSLKPEDTAVYYCAARPRGKYDYWGQGTQVTVSS	high polyreactivity
QVQLVESGGGLVQAGGSLRLSCAASGFIFYSYAMGWYRQAPGKERELVAAISFSGSRTYYADSVKGRFTISRDNAKNTVYLQMNSLKPEDTAVYYCAAYYIASRSTRYYYWGQGTQVTVSS	high polyreactivity
QVQLVESGGGLVQAGGSLRLSCAASGRIFYVNAMGWYRQAPGKERELVAAISGSGGRTYYADSVKGRFTISRDNAKNTVYLQMNSLKPEDTAVYYWNTQFRYPQKYDYWGQGTQVTVSS	high polyreactivity
QVQLVESGGGLVQAGGSLRLICAASGSIFGWNAMGWYRQAPGKERELVASITWSGGRTYYADSVKGRFTISRDNAKNTVYLQMNSLKPEDTAVYYCAADYKPTSRSNKYYYWGQGTQVTVSS	high polyreactivity
QVQLVESGGGLVQAGGSLRLSCAASGSIFGTYAKGWYRQAPGKERELVADISLSGGSTYYADSVKGRFTISRDTAKKSVYLQMNSLKPEDNAVYYCNAESTAYGYVAVYRYDYWGQGTQVTVSS	low polyreactivity
QVKLVESGGGLVQAGGSLRLSCAASGRISFYYAMGWYRQAPGKERELVATISSSGGSTHYADSVKGRFTISRDNAKNTVYLQMNSLKPEDTAVYYCARDDSERIWLEQSGYWGQGTQVTVSS	low polyreactivity
QVQLVESGGGLVQAGGSLRLSCAASGFIVYTYAMGWYRPAPGKERELVAAISIGGRTNYADSVKGRFTISRDNAKNTVSLQMNSLKPEDTARYYCAARGYKRIGYWGQGTLVTVSS	high polyreactivity
QVQLVESGGGLLQAAGSLRLSCAASGIIFHIYAMGWYRQAPGKERELVAAISTGSSTYYADSVKGRFTISRDNAKNTVYLQMKSLKPEDTAVYYCNAVSRLLWVKGFDYWGQGTQVTVSS	low polyreactivity
QVQLVESGGGLVQAGGSLRLRCAASGSIFNSYAMGWYRPAPGKERELVAAISIRGTRTYYADSVKGRFTISRDNAKNTVSLQMNSLKPEDSAVSYCAADASSTEGMDFWGQGTQLTVSS	high polyreactivity
QVQHVESGGGLVQAGGSLRLSCAASGYIFPDYAMGWYRLAPGKEREMVAAITSSGGITYYADSVKGRFTISRDNAKNTVYLQMNCLKPEDSAVYYCAKGYPWRYSIMDYWGQGTQVTVSS	low polyreactivity
QVQLVESGGGLVQAGGSLRLSCAASGLIFGYYALGWYRQAPGKDRELVAAINSGGSTYYADTVKGRFTISRDNAKNTVYLQMNSLKPEDTPVYNCAARYYSEYDYWGHGTQVTVSS	low polyreactivity
QVQLVESGGGLVQAGGSLRLSSAASGSTFRGNAMGWYRQAPGKERELVAAISAIGGSTYYADSVKGRFTISRDNAKNTVYLQMNSLKPEDTAVYYCAARYLYLLGGFNYWGQGTQVTVSS	high polyreactivity
QVQLVESGGGLVQAGGSLRLSCAASGFIFDYNAMGWYRQAPGKERELVAAITSGGGSTYYADSVKGRFTISRDNAKNTVYLQMNSLKPEDTAVYYCNAVPSQHDEFDYWGQGTQVTVSS	low polyreactivity

Sequence	polyreactivity (PSR sort gate)
QVQLVESGGGLVQAGGSLRLSCAAYGLTFYHYTMGWYRQAPGKERELVAAISSSGVTTYYADSVKGRFTISRDNAKNTVYLQMNSLKPEDTAVYYCAAVWYPDRVQPENGTTDSPGDYWGQGTQVTVSS	low polyreactivity
QVQLVVSGGGLVQQGGSLRLSCAASGTFRYYTMGWYRQAPGKERELVAAISRSGGRSYYADSVTGRCTISRDNAKNTVDLPMNSLKPEDTAVYYCAARYKLYYPDYYYWGQGTQVTVSS	high polyreactivity
QVQLVESGGGVVQAGGSLRLSCAASGRICVRYAMGWYRQAPGKERELVAAISTRGGSTYYADSVKGRFTISRDNAKYTVYFQMNSLKPEDTAVYYCAARGVGPQPGYQRFNYWGQGTQVTVSS	high polyreactivity
QVQLVESGGGLVQAGGSLRLSAATGSTLAGKTMGWYRQASRKERELVAAINDSGGSTYYADSVKGRFTISRDNAKNSVYLQMNSLKPEDTAVYYCNADGYAYIEDGYDYWGQCTQVTVSS	low polyreactivity
QVQLVESGGGLVQAGGSLRLSCAASGSTFDQNVMGWYRQAPGKERELVATINFSGDSTYYADSVKGRFTISRDNAKNTVYLQMNSLKPEDTAVYYCAVDWGEYIDTSVKRDISYYWGQGTQVTVSS	low polyreactivity
QVQLVESGGGLVQAGGSLRLSCAASGITFYYYVMGWYRQAPGKERELVASISRGGSTYYADSVKGRFTISRDNAKNTVYLQMNSLKPEDTAVYYCAAAGNRPWSITPFRKRYGYNYWGQGSQVTVSS	high polyreactivity
QVQLVESGGGLVQAGGSLSLSCAASGRTFGLNVMGWYRQAPGKERELVATISGVGSTNYADSVKWRFTISRDNAKNTVYLQMNSLKPEDTAVYYCAKDPHVGRWWDLYSPYYSWGQGTQVTVSS	low polyreactivity
QVQLVESGGGLVQAGGSLRLSCAASGRIFYYYPMGWYRQAPGKERELVADITRGGGTYYADSVKGRFTISRDNAKNTVYLQMNSLKPEDTAVYYCAKGGPPESHHPYRYRFDYWGQGTQVTVSS	low polyreactivity
QVQLVESGGGLVQAGGSLRLSCVASGSISQTYAMGWYRQAPGKERELVAAISSSGASTYYADSVKGRFTISRDNAKNTVYLQMNSLKPEDTAVYYCNADKFRRYGYWGQGTQVTVSS	high polyreactivity
QVQLVESGGGLVQAGGSLRLICAASGSTFKWYAMGWYRQAPGKERELVAAISSSGGTTYYADSVKGRFTISRDNAKNTVYLQMNSLKPEDTAVYYCAKPYLYSGYGYWGQGTQVTVSS	high polyreactivity
QVHLVESGGGLVQAGGSLRLSSAASGSTFPVYAMGWYRQAPGKERELVASISSGGSTYYADSVQGRFTISRDNAKNSVYFQKNSLKPEDTAVYYCAKDPWVDSFVIYDDWGQGTEVTVSS	low polyreactivity
QVQLVESGGGLVQAGGRLRLSSAASGRTFYPNAMGWYRKAPLKERELVAAISGSGGSTYYADSVKGRFTISRDNAKNTVYLQMNSLKPEDTAVYYCAAYPEYLVGYRYGSWGQGTQVTVSS	high polyreactivity
QLHLVESGGGLVQAGGSLRLSCAASGLTFDQYAMGWYRQAPGKERELVAAISGSDSTYYADSVKGRFTISRDNAKNTVYLQMNSLKPEDTAVYYCAASGDYVNIITGERFDARLYDYWGQGTQVTVSS	low polyreactivity
QVQLVESGGGLVQAGGSLRLSCAASGSTFNGYAMGWYRQAPGKERELVAAINWTGDSTYYADSVKGRFTISRDNAKNTVYLQMNSLKPEDTAVYYCAAIRRQKGLWDYYYWGQGTQVTVSS	low polyreactivity
QVQLVESGGGLVQAGGSLRLSCAASGRIFSFNAMGWYRPAPGKERELVATISWNGDSTYADSVKGRFTISRDNAKNTVYLQMNSLKPEDTAVYYCAVDVPPWDYDYWGQGTQVTVSS	low polyreactivity
QVQLVESGGGLVQAGGSLRLSCAASGRIFGSYAMGWYRQAPGKERELVASIRSRGGRTYYADSVKGRFTISRDNAKNTVYLQMNSLKPEDTAVYYCAADVGVYYYSFYYWGQGTQVTVSS	high polyreactivity
QVQLVESGGGLVQAGGSLRLSGAASGLIFSRYAMGWYRQAPGKVRELVAAITSGTSTYDADSVKGRFTISRDNAKNTVYKQMNSLKPEDTAGYYCAARWWTYNARDYPDYYWGQGTQVTVSS	high polyreactivity
QVQLVESGGGLVQAGGSLRLSCAASGSIFSKNARGWYRQAPGKERELVAAISWSGDRTYYADSVKGRFTISRDNAKNTVYLQMNSLKPEDTAVYYCAADYTVKYGYWGQGTQVTVSS	high polyreactivity
QVQLVESGGGLVQAGGSLRLSCAASGRILEVYAMGWYRQAPGKERELVAAIRWSDGNTYYADSVKGRFTISRDNAKNTVYLQMNSLKPEDTAVYYCAARTPGGYDWGQGTQVTVSS	high polyreactivity
QVQLVESGAGLVQAGGSLRLSCAASGSIFYDYAMGVYRQAPGKERELVAAISSSGITYYADSVKGRFTISRDNAKNTVYLQMNSLKPVDTAVYYCNARSYLRDYYYWGQGTQVTVSS	high polyreactivity
QVQLVESGGGLVQAGGSLRLSCAASGFTIYRYAMGWYRQAPGKERELVATIRRGGSTKYADSVKGRYTISRDNAKNTVYILMISLKPEDTAVYYCNARYYAAPDKYYYWGQGTQVTVSS	low polyreactivity
